These results are taken from publication PMC13269782.

Targets include Cx36 E230K (human) (UniProt Q9UKL4); Cx36 E230K-E239K (human) (UniProt Q9UKL4); Cx36 E239K (human) (UniProt Q9UKL4); Cx36 K238A (human) (UniProt Q9UKL4); Cx36 K238E-E230K (human) (UniProt Q9UKL4); Cx36 K238E-E239K (human) (UniProt Q9UKL4); Cx36 K238Q (human) (UniProt Q9UKL4); Cx26, human (human) (UniProt P29033); Cx30, human (human) (UniProt O95452); Cx31.3, human (human) (UniProt Q8NFK1); Cx32 (human) (UniProt P08034); Cx43, human (human) (UniProt P17302); Cx45, human (human) (UniProt P36383); Cx36 K238E (human) (UniProt Q9UKL4); Cx36 E241A (human) (UniProt Q9UKL4); Cx36 E241K (human) (UniProt Q9UKL4).

For assay [1], the target named is Connexin36 (Cx36), human, wildtype (human) (UniProt Q9UKL4).
The next assay deals with T1, Cx47, human (human) (UniProt Q5T442).
T1 sequence: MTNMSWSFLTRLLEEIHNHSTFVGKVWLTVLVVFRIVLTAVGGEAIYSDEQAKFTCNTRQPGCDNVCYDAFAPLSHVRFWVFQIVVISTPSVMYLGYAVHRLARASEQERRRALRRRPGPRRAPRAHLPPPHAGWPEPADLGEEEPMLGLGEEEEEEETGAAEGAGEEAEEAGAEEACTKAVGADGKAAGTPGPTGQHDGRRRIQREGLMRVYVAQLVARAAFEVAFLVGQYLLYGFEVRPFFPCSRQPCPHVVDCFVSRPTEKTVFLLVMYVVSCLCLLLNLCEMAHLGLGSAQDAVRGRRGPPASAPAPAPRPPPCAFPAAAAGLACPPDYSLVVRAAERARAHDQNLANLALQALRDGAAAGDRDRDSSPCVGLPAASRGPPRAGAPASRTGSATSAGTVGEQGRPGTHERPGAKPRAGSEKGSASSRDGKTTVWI

The target in assay [2] is Cx36 E230K-E239K-E241K (human) (UniProt Q9UKL4).
For assay [3], the target named is Cx36 K238E-E230K-E239K (human) (UniProt Q9UKL4).
Assay [4] deals with Cx36 K238E-E230K-E239K-E241K (human) (UniProt Q9UKL4).

Chain of Connexin36 (Cx36), human, wildtype (Q9UKL4 whole entry): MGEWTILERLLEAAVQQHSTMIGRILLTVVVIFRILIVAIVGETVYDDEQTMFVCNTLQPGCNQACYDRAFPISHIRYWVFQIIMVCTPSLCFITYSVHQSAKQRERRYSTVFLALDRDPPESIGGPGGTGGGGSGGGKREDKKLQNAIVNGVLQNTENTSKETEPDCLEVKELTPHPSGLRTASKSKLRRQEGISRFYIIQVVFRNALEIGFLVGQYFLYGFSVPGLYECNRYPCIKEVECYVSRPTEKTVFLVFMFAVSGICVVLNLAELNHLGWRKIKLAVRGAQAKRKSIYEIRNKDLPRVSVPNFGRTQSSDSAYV
Chain of Cx30, human (human) (O95452 whole entry): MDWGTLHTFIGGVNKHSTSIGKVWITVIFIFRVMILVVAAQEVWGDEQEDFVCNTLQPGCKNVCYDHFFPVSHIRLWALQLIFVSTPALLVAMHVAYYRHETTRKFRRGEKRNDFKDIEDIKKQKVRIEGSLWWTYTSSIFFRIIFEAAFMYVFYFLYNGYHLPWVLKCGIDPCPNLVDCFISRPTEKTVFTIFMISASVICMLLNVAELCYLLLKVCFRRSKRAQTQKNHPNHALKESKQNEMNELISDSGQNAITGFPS
Chain of Cx30, human (O95452 whole entry): as above
Chain of Cx45, human (P36383 whole entry): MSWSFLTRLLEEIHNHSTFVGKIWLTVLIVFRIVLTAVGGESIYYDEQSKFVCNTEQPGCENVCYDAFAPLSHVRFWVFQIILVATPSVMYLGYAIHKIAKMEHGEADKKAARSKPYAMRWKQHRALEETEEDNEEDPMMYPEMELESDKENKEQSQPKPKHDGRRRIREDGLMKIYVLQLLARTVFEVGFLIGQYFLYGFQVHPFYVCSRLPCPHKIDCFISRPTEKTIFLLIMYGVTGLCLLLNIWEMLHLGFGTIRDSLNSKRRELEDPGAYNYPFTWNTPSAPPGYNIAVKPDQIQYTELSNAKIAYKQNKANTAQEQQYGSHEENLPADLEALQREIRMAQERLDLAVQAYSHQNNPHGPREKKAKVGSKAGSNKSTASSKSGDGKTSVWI
Chain of Cx45, human (human) (P36383 whole entry): as above
Chain of Cx43, human (human) (P17302 whole entry): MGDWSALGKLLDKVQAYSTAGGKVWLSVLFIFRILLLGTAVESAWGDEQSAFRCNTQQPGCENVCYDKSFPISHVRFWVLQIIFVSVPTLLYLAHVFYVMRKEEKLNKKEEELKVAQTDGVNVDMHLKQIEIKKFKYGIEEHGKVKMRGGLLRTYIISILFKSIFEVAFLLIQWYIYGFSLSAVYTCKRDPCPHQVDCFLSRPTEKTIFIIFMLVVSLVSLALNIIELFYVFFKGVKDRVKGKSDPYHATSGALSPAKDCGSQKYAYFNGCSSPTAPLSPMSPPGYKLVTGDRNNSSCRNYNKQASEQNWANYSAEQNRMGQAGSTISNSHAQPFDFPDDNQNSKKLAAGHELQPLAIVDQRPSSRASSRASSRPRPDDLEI
Chain of Cx43, human (P17302 whole entry): as above
Chain of Cx32 (P08034 whole entry): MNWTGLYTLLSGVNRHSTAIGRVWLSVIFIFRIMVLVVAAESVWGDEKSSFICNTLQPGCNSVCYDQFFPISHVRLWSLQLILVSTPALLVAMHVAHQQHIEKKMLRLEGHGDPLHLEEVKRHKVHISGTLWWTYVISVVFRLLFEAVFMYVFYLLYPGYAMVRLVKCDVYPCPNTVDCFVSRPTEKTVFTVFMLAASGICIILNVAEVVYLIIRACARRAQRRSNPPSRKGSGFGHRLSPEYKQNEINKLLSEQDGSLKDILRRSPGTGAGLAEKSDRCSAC
Chain of Cx32 (human) (P08034 whole entry): as above
Chain of Cx31.3, human (human) (Q8NFK1 whole entry): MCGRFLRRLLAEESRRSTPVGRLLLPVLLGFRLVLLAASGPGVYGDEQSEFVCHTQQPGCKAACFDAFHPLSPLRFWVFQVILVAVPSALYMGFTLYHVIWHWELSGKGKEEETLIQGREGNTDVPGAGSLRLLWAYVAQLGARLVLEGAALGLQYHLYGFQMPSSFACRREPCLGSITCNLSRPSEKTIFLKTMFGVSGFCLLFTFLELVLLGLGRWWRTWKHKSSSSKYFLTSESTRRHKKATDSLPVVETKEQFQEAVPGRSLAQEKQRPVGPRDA
Chain of Cx31.3, human (Q8NFK1 whole entry): as above

In [1], “Connexin36 (Cx36), human, wildtype (from UniProt Q9UKL4 1-321) (natural protein)” showed a median junctional conductance (Gj), dual whole-cell patch clamp of DKO HEK293 cell pairs, homotypic; IQR 0.02–0.19; 38 pairs of 0.1 nS. The substance also returned a median junctional conductance (Gj), dual whole-cell patch clamp of DKO HEK293 cell pairs, heterotypic; IQR 0.04–0.22; 15 pairs in the assay with Cx36 E230K (human) of 0.14 nS. In the assay with Cx36 E230K-E239K (human), this substance had a median junctional conductance (Gj), dual whole-cell patch clamp of DKO HEK293 cell pairs, heterotypic; IQR 0.11–0.41; 19 pairs of 0.22 nS. In the assay with Cx36 E239K (human), this substance returned a median junctional conductance (Gj), dual whole-cell patch clamp of DKO HEK293 cell pairs, heterotypic; IQR 0.08–0.19; 18 pairs of 0.13 nS. Also, the median junctional conductance (Gj), dual whole-cell patch clamp of DKO HEK293 cell pairs, heterotypic; IQR 0.05–0.24; 17 pairs with Cx36 K238A (human) turned out to be 0.16 nS. This substance returned a median junctional conductance (Gj), dual whole-cell patch clamp of DKO HEK293 cell pairs, heterotypic; IQR 0–0; 16 pairs in the assay with Cx36 K238E-E230K (human) of 0 nS. In the assay with Cx36 K238E-E239K (human), this substance came in with a median junctional conductance (Gj), dual whole-cell patch clamp of DKO HEK293 cell pairs, heterotypic; IQR 0–0.10; 15 pairs of 0.06 nS. Moreover, the median junctional conductance (Gj), dual whole-cell patch clamp of DKO HEK293 cell pairs, heterotypic; IQR 0.01–0.31; 16 pairs with Cx36 K238Q (human) is 0.13 nS. Besides, the median junctional conductance (Gj), dual whole-cell patch clamp of DKO HEK293 cell pairs, heterotypic; IQR 0–0; 19 pairs with Cx26, human (human) worked out at 0 nS; in the assay with Cx32 (human), 0 nS. In addition, the median junctional conductance (Gj), dual whole-cell patch clamp of DKO HEK293 cell pairs, heterotypic; IQR 0–0; 15 pairs with Cx30, human (human) stood at 0 nS; with Cx31.3, human (human), 0 nS. Further, the median junctional conductance (Gj), dual whole-cell patch clamp of DKO HEK293 cell pairs, heterotypic; IQR 0–0; 25 pairs with Cx43, human (human) was 0 nS. The median junctional conductance (Gj), dual whole-cell patch clamp of DKO HEK293 cell pairs, heterotypic; IQR 0–0; 26 pairs with Cx45, human (human) amounted to 0 nS. Further, the median junctional conductance (Gj), dual whole-cell patch clamp of DKO HEK293 cell pairs, heterotypic; IQR 0–0; 21 pairs with Cx47, human (human) was determined as 0 nS.

“Cx30, human (from UniProt O95452 1-261) (natural protein)” came in with a median junctional conductance (Gj), dual whole-cell patch clamp of DKO HEK293 cell pairs, homotypic; IQR 0.43–21.28; 16 pairs with Cx30, human (human) of 6.55 nS.

Substance “Cx31.3, human (from UniProt Q8NFK1 1-279) (natural protein)” registered a median junctional conductance (Gj), dual whole-cell patch clamp of DKO HEK293 cell pairs, homotypic; IQR 0–0; 17 pairs with Cx31.3, human (human) of 0 nS.

“Cx32 (from UniProt P08034 1-283) (natural protein)” gave a median junctional conductance (Gj), dual whole-cell patch clamp of DKO HEK293 cell pairs, homotypic; IQR 0–16.23; 17 pairs in the assay with Cx32 (human) of 0.85 nS.

For “Cx36 E230K (from UniProt Q9UKL4 1-321) (natural protein)”, in the assay with Cx36 E230K (human), the median junctional conductance (Gj), dual whole-cell patch clamp of DKO HEK293 cell pairs, homotypic; IQR 0–0.14; 28 pairs was 0.01 nS. The median junctional conductance (Gj), dual whole-cell patch clamp of DKO HEK293 cell pairs, heterotypic; IQR 0–0; 20 pairs with Cx36 E230K-E239K (human) was determined as 0 nS. The same substance gave a median junctional conductance (Gj), dual whole-cell patch clamp of DKO HEK293 cell pairs, heterotypic; IQR 0.05–0.22; 20 pairs in the assay with Cx36 K238E (human) of 0.1 nS.

In the case of “Cx36 E230K-E239K (from UniProt Q9UKL4 1-321) (natural protein)”, in the assay with Cx36 E230K-E239K (human), the median junctional conductance (Gj), dual whole-cell patch clamp of DKO HEK293 cell pairs, homotypic; IQR 0–0; 20 pairs was 0 nS. Moreover, the median junctional conductance (Gj), dual whole-cell patch clamp of DKO HEK293 cell pairs, heterotypic; IQR 0–0.18; 15 pairs with Cx36 K238E-E230K (human) was 0.09 nS.

As to “Cx36 E230K-E239K-E241K (from UniProt Q9UKL4 1-321) (natural protein)”, the median junctional conductance (Gj), dual whole-cell patch clamp of DKO HEK293 cell pairs, homotypic; IQR 0–0; 12 pairs in assay [2] was 0 nS.

With “Cx36 E239K (from UniProt Q9UKL4 1-321) (natural protein)”, in the assay with Cx36 E230K-E239K (human), the median junctional conductance (Gj), dual whole-cell patch clamp of DKO HEK293 cell pairs, heterotypic; IQR 0–0.12; 21 pairs was determined as 0.05 nS. For the same substance, in the assay with Cx36 E239K (human), the median junctional conductance (Gj), dual whole-cell patch clamp of DKO HEK293 cell pairs, homotypic; IQR 0.04–0.31; 30 pairs worked out at 0.12 nS. The median junctional conductance (Gj), dual whole-cell patch clamp of DKO HEK293 cell pairs, heterotypic; IQR 0.08–0.2; 23 pairs in the assay with Cx36 K238E (human) amounted to 0.11 nS.

In the assay with Cx36 E230K-E239K (human), “Cx36 E241A (from UniProt Q9UKL4 1-321) (natural protein)” displayed a median junctional conductance (Gj), dual whole-cell patch clamp of DKO HEK293 cell pairs, heterotypic; IQR 0–0; 16 pairs of 0 nS. This substance registered a median junctional conductance (Gj), dual whole-cell patch clamp of DKO HEK293 cell pairs, homotypic; IQR 0.03–0.19; 18 pairs with Cx36 E241A (human) of 0.09 nS.

On to “Cx36 E241K (from UniProt Q9UKL4 1-321) (natural protein)”, for which the median junctional conductance (Gj), dual whole-cell patch clamp of DKO HEK293 cell pairs, homotypic; IQR 0–0; 25 pairs with Cx36 E241K (human) amounted to 0 nS.

“Cx36 K238A (from UniProt Q9UKL4 1-321) (natural protein)” returned a median junctional conductance (Gj), dual whole-cell patch clamp of DKO HEK293 cell pairs, homotypic; IQR 0–0; 23 pairs in the assay with Cx36 K238A (human) of 0 nS.

In [2], “Cx36 K238E (from UniProt Q9UKL4 1-321) (natural protein)” came in with a median junctional conductance (Gj), dual whole-cell patch clamp of DKO HEK293 cell pairs, heterotypic; IQR 0–0; 18 pairs of 0 nS. In the assay with Cx36 E241K (human), this substance yielded a median junctional conductance (Gj), dual whole-cell patch clamp of DKO HEK293 cell pairs, heterotypic; IQR 0–0; 19 pairs of 0 nS. The median junctional conductance (Gj), dual whole-cell patch clamp of DKO HEK293 cell pairs, homotypic; IQR 0–0; 19 pairs in the assay with Cx36 K238E (human) turned out to be 0 nS. In addition, the median junctional conductance (Gj), dual whole-cell patch clamp of DKO HEK293 cell pairs, heterotypic; IQR 0–0; 15 pairs in the assay with Cx36 K238E-E230K (human) and with Cx36 K238E-E239K (human) was 0 nS throughout.

On to “Cx36 K238E-E230K (from UniProt Q9UKL4 1-321) (natural protein)”, for which the median junctional conductance (Gj), dual whole-cell patch clamp of DKO HEK293 cell pairs, homotypic; IQR 0–0; 15 pairs with Cx36 K238E-E230K (human) is 0 nS.

In assay [3], “Cx36 K238E-E230K-E239K (from UniProt Q9UKL4 1-321) (natural protein)” gave a median junctional conductance (Gj), dual whole-cell patch clamp of DKO HEK293 cell pairs, homotypic; IQR 0.08–0.14; 16 pairs of 0.12 nS.

The substance “Cx36 K238E-E230K-E239K-E241K (from UniProt Q9UKL4 1-321) (natural protein)” had a median junctional conductance (Gj), dual whole-cell patch clamp of DKO HEK293 cell pairs, homotypic; IQR 0–0; 16 pairs in assay [4] of 0 nS.

In turn, “Cx36 K238E-E239K (from UniProt Q9UKL4 1-321) (natural protein)” gave a median junctional conductance (Gj), dual whole-cell patch clamp of DKO HEK293 cell pairs, homotypic; IQR 0–0; 15 pairs with Cx36 K238E-E239K (human) of 0 nS.

In the assay with Cx36 K238Q (human), “Cx36 K238Q (from UniProt Q9UKL4 1-321) (natural protein)” returned a median junctional conductance (Gj), dual whole-cell patch clamp of DKO HEK293 cell pairs, homotypic; IQR 0–0; 16 pairs of 0 nS.

Substance “Cx43, human (from UniProt P17302 1-382) (natural protein)” yielded a median junctional conductance (Gj), dual whole-cell patch clamp of DKO HEK293 cell pairs, homotypic; IQR 0–9.93; 17 pairs in the assay with Cx43, human (human) of 0.46 nS.

Regarding “Cx45, human (from UniProt P36383 1-396) (natural protein)”, the median junctional conductance (Gj), dual whole-cell patch clamp of DKO HEK293 cell pairs, homotypic; IQR 0.5–19.6; 29 pairs with Cx45, human (human) was found to be 6.8 nS.
